Assay results reported in the supplement of paper PMC10126150.
± gives the standard deviation of the averaged measurements.

Test system: ATP
Assay: switch fluorescence ratio, 500 uM ATP over buffer (Cy3 cluster intensity, sum of 5 cycles each) (fold (ratio)); higher = stronger signal-on switching upon ATP binding; sequences stand for … in TCGTCGGCAGCGTCAGATGTGTATAAGAGACAGTTTTTTTTTTTTTTTTTTTTTTTTT…TC
Conditions: aptamer strand: ATP DNA aptamer (quencher-CACCTGGGGGAGTATTGCGGAGGAAGG + anchor), 100 nM annealed; ATP concentration: 500 uM
In short: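 Between each of five buffer/ATP cycles, the flow-cell was stripped with NaOH and re-annealed. Each cycle imaged Cy3-labelled switching-strand clusters, annealed to 100 nM quencher-labelled ATP aptamer on a modified Illumina MiSeq flow-cell, first in selection buffer and then after 15 min with 500 uM ATP at 22 °C. The fluorescence ratio is summed target-cycle over summed buffer-cycle Cy3 intensity per cluster, averaged per switch-domain sequence, with clusters outside 100-1000 RFU excluded.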
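Note: ATP exposure 15 min at 22 °C before imaging.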

| Sequence | switch fluorescence ratio |
| --- | --- |
| CGCTGGTGGG | 1.01 ± 0.029 |
| CGCTGTATCG | 0.996 ± 0.043 |
| CGCTGTCACG | 1.0556 ± 0.00068 |
| CGCTTAAAGT | 1.03 ± 0.05 |
| CGCTTAGATT | 0.997 ± 0.025 |
| CGCTTCCGGG | 1.37 ± 0.059 |
| CGCTTCGGTT | 0.963 ± 0.032 |
| CGCTTCTGGG | 0.98 ± 0.011 |
| CGCTTGAAAT | 1.05 ± 0.018 |
| CGCTTGTTCG | 1.01 ± 0.027 |
| CGCTTTCTTT | 1.03 ± 0.041 |
| CGCTTTGATA | 0.991 ± 0.03 |
| CGGAAACAAA | 1.01 ± 0.075 |
| CGGAAACGTG | 1.01 ± 0.028 |
| CGGAACAGCA | 1.08 ± 0.051 |
| CGGAAGCGGG | 1.02 ± 0.038 |
| CGGAAGGAAG | 0.946 ± 0.036 |
| CGGAAGGGAG | 0.996 ± 0.015 |
| CGGAAGTGTG | 0.981 ± 0.039 |
| CGGAAGTTAT | 1.01 ± 0.04 |
| CGGAATATGG | 1.0484 ± 0.001 |
| CGGAATTTCC | 1.09 ± 0.048 |
| CGGACACTTT | 1.019 ± 0.0091 |
| CGGACAGGAG | 0.98 ± 0.051 |
| CGGACCAAGG | 1 ± 0.077 |

| Sequence | switch fluorescence ratio |
| --- | --- |
| CGGACCATTT | 1.04 ± 0.024 |
| CGGACTAGCG | 0.944 ± 0.032 |
| CGGAGAGAGC | 0.993 ± 0.011 |
| CGGAGATGGC | 1.05 ± 0.038 |
| CGGAGCGCGT | 0.991 ± 0.019 |
| CGGAGGAGCA | 0.968 ± 0.061 |
| CGGAGGCGGT | 1.02 ± 0.047 |
| CGGAGGGAGG | 0.928 ± 0.091 |
| CGGAGGGTAC | 1.61 ± 0.08 |
| CGGAGTGGGG | 1.01 ± 0.012 |
| CGGAGTTTTG | 1.01 ± 0.027 |
| CGGATACGCC | 1.09 ± 0.028 |
| CGGATATGGT | 1 ± 0.013 |
| CGGATGCGGT | 1.013 ± 0.0075 |
| CGGATGGGGG | 1.01 ± 0.046 |
| CGGATGGGTG | 0.996 ± 0.021 |
| CGGATGGTCA | 1.013 ± 0.0099 |
| CGGATGTTAT | 0.9626 ± 0.0096 |
| CGGATTAGGG | 1 ± 0.022 |
| CGGATTCCCC | 1.06 ± 0.011 |
| CGGATTCGAG | 0.98 ± 0.035 |
| CGGATTGGGA | 1.002 ± 0.0026 |
| CGGATTTGGG | 0.957 ± 0.067 |
| CGGCAACGGT | 1.01 ± 0.011 |
| CGGCAAGTGC | 2.19 ± 1 |

| Sequence | switch fluorescence ratio |
| --- | --- |
| CGGCAGTATG | 1.02 ± 0.011 |
| CGGCAGTGTG | 1.01 ± 0.048 |
| CGGCATAGAT | 1.04 ± 0.029 |
| CGGCATGAGG | 0.972 ± 0.018 |
| CGGCCAACGC | 1.17 ± 0.028 |
| CGGCCATCGG | 0.9978 ± 0.0049 |
| CGGCCGAGAG | 1.02 ± 0.018 |
| CGGCCGAGGA | 0.978 ± 0.01 |
| CGGCCGGGGA | 1.14 ± 0.19 |
| CGGCCGTACG | 1.01 ± 0.019 |
| CGGCCTGTTG | 1.01 ± 0.026 |
| CGGCGAATAT | 1.024 ± 0.0011 |
| CGGCGATCGC | 1.04 ± 0.011 |
| CGGCGATGGG | 1.11 ± 0.069 |
| CGGCGGGCTT | 1.02 ± 0.018 |
| CGGCGGGTTT | 1.02 ± 0.049 |
| CGGCGTGTTT | 1.052 ± 0.0087 |
| CGGCTAAAGA | 0.976 ± 0.011 |
| CGGCTCCCGC | 1.046 ± 0.0084 |
| CGGCTGAATT | 1 ± 0.003 |
| CGGCTGGTGG | 1.02 ± 0.016 |
| CGGCTGTACG | 1.07 ± 0.022 |
| CGGCTTACTT | 1.07 ± 0.011 |
| CGGCTTGGTG | 0.996 ± 0.048 |
| CGGCTTTCCC | 1.01 ± 0.028 |

| Sequence | switch fluorescence ratio |
| --- | --- |
| CGGCTTTGGA | 1.056 ± 0.0019 |
| CGGGAAATAG | 1.06 ± 0.02 |
| CGGGAAGGCC | 0.98791 ± 0.00011 |
| CGGGAATCCT | 1.11 ± 0.04 |
| CGGGAATTAA | 0.997 ± 0.03 |
| CGGGAATTAG | 1.01 ± 0.035 |
| CGGGACGGGC | 1.04 ± 0.043 |
| CGGGAGAGTT | 0.996 ± 0.065 |
| CGGGAGCG | 1.03 ± 0.022 |
| CGGGAGGTAA | 0.9863 ± 0.0038 |
| CGGGATAGGG | 0.977 ± 0.026 |
| CGGGATGACA | 0.979 ± 0.046 |
| CGGGATGATT | 0.998 ± 0.044 |
| CGGGATGGAG | 0.9879 ± 0.0062 |
| CGGGATTTAG | 1 ± 0.014 |
| CGGGCAGTTG | 0.9992 ± 0.0071 |
| CGGGCATGGG | 1.01 ± 0.029 |
| CGGGCCACGT | 0.997 ± 0.034 |
| CGGGCCACTT | 1.008 ± 0.0076 |
| CGGGCCGGGA | 0.976 ± 0.025 |
| CGGGCCGTTT | 1.06 ± 0.077 |
| CGGGCCTTGA | 0.981 ± 0.016 |
| CGGGCGATAA | 1.45 ± 0.0045 |
| CGGGCGGACA | 0.974 ± 0.04 |
| CGGGCGGGTG | 1.03 ± 0.017 |
